The experiment concerns the target sAPPβ (Homo sapiens, UniProt P05067). Description: Binding affinity on GLM chip using ProteOn (SPR). Particulars: antibody immobilized, sAPPβ as analyte. The procedure: Binding affinity of the neoepitope antibody, 4G4 was immobilized on a GLM chip (BIO-RAD) and analyzed using a ProteOn (BIO-RAD). 4 different concentrations of sAPPβ (40, 20, 10, 5 nM) were injected as the analytes. […] Binding affinity of the internal antibody, 5H10 was immobilized on a GLM chip (BIO-RAD) and analyzed using a ProteOn (BIO-RAD). […] concentrations of sAPPβ (1000, 250, 62.5, 15.6, 3.91 nM) were injected as the analytes.

For orientation: Kd means the concentration at which binding is half-saturated. Read a low Kd as higher affinity.

sAPPβ, sequence (P05067 18-671 limits assumed): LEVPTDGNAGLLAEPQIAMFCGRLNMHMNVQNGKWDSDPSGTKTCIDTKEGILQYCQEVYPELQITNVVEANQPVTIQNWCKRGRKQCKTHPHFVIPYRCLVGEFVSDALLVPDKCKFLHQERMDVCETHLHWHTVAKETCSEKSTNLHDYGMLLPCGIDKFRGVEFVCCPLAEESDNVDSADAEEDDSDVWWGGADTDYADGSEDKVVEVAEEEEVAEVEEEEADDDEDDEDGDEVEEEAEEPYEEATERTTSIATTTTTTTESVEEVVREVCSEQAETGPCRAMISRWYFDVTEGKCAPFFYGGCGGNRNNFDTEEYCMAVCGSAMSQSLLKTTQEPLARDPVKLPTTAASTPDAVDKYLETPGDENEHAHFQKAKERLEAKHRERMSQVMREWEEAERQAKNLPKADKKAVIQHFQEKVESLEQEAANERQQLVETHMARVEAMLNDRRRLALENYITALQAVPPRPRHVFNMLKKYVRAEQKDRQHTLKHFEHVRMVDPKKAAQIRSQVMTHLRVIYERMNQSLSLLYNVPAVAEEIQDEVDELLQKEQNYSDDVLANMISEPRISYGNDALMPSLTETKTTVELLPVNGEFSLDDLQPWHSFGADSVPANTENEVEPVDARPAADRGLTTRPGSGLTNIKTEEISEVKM

B1: 5H10: mouse monoclonal antibody recognizing the internal structure/C-terminal fragments of sAPPβ; VH SEQ ID NO: 14, VL SEQ ID NO: 15 (antibody, V domains shown)
VH: QVQLQQSGTELAKPGASVKMSCKASGYTFIDYWMHWIKQSPGQGLEWIGFINPRSGSTTYNQKFRDKATLTVDTSSSTAYMQLTSLTSEDSAVYYCTRPDFDYFDYWGQGTTLTVSS
VL: DVLMTQTPLSLPVSLGDHASISCRSSQSIVQSNGNTYLEWYLQKPGQSPKLLIYKVSNRFSGVPDRFSGSGSGTDFTLKISSVEAEDLGIYYCFQASHVPLTFGAGTKLELKRA
modifications: VH of antibody 5H10; VL of antibody 5H10
The molecule B1 registered a Kd of 0.62 nM.

For the origin of these results see patent publication US9222947B2, “Anti-sAPPβ antibody” (SHIONOGI & CO., LTD., priority 2012, dated 2015).
